We go through 1 molecule from article PMC4604684, “Characterisation of the Cullin-3 mutation that causes a severe form of familial hypertension and hyperkalaemia” (EMBO Molecular Medicine, 2015).

The target of the test is T1, CUL3^WT-RBX1 complex, purified, tag cleaved (human, UniProt Q13618-1 1-768; P62877 1-108).
T1 construct: Cullin-3, human, wild type; RBX1, human, untagged; The pull-down sections call this protein only CUL3^WT; also called CUL3-RBX1; not shown: DAC, N-terminal, cleaved
As to the kind of experiment: pull-down; purified GST-CAND1 or GST on glutathione-sepharose; incubated with purified CUL3^WT or CUL3^Δ403–459 at 4°C for 1 h; washed thrice; SDS-PAGE, Coomassie. The conditions noted are these: both partners purified.

T1 sequence (Q13618 whole entry, chain 1 of 2): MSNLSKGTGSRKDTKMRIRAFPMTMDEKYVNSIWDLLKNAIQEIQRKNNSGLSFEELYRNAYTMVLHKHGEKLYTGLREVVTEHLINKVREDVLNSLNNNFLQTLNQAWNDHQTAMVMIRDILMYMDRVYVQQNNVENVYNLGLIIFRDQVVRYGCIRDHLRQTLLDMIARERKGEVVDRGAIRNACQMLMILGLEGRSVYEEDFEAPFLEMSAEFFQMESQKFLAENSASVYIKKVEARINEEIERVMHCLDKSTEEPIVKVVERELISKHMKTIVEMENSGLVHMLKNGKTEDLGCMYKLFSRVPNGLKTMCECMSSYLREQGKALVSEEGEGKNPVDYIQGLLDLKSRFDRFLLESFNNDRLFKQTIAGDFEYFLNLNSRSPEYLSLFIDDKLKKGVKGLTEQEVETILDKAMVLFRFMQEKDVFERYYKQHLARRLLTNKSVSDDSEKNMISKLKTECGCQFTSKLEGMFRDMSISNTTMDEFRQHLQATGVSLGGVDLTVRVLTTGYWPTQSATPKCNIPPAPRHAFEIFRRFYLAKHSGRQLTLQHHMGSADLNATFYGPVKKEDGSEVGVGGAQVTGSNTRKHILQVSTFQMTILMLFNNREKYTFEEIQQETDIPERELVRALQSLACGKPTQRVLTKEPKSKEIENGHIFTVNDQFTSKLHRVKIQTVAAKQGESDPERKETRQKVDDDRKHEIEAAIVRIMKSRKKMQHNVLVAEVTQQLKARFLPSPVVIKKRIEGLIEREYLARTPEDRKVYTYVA
T1 sequence (P62877 whole entry, chain 2 of 2): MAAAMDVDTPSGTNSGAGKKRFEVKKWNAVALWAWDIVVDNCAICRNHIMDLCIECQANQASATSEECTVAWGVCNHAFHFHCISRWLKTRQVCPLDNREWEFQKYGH

B1: GST-CAND1 (natural protein, human, UniProt Q86VP6-1 1-1230, looked up)
chain: MASASYHISNLLEKMTSSDKDFRFMATNDLMTELQKDSIKLDDDSERKVVKMILKLLEDKNGEVQNLAVKCLGPLVSKVKEYQVETIVDTLCTNMLSDKEQLRDISSIGLKTVIGELPPASSGSALAANVCKKITGRLTSAIAKQEDVSVQLEALDIMADMLSRQGGLLVNFHPSILTCLLPQLTSPRLAVRKRTIIALGHLVMSCGNIVFVDLIEHLLSELSKNDSMSTTRTYIQCIAAISRQAGHRIGEYLEKIIPLVVKFCNVDDDELREYCIQAFESFVRRCPKEVYPHVSTIINICLKYLTYDPNYNYDDEDEDENAMDADGGDDDDQGSDDEYSDDDDMSWKVRRAAAKCLDAVVSTRHEMLPEFYKTVSPALISRFKEREENVKADVFHAYLSLLKQTRPVQSWLCDPDAMEQGETPLTMLQSQVPNIVKALHKQMKEKSVKTRQCCFNMLTELVNVLPGALTQHIPVLVPGIIFSLNDKSSSSNLKIDALSCLYVILCNHSPQVFHPHVQALVPPVVACVGDPFYKITSEALLVTQQLVKVIRPLDQPSSFDATPYIKDLFTCTIKRLKAADIDQEVKERAISCMGQIICNLGDNLGSDLPNTLQIFLERLKNEITRLTTVKALTLIAGSPLKIDLRPVLGEGVPILASFLRKNQRALKLGTLSALDILIKNYSDSLTAAMIDAVLDELPPLISESDMHVSQMAISFLTTLAKVYPSSLSKISGSILNELIGLVRSPLLQGGALSAMLDFFQALVVTGTNNLGYMDLLRMLTGPVYSQSTALTHKQSYYSIAKCVAALTRACPKEGPAVVGQFIQDVKNSRSTDSIRLLALLSLGEVGHHIDLSGQLELKSVILEAFSSPSEEVKSAASYALGSISVGNLPEYLPFVLQEITSQPKRQYLLLHSLKEIISSASVVGLKPYVENIWALLLKHCECAEEGTRNVVAECLGKLTLIDPETLLPRLKGYLISGSSYARSSVVTAVKFTISDHPQPIDPLLKNCIGDFLKTLEDPDLNVRRVALVTFNSAAHNKPSLIRDLLDTVLPHLYNETKVRKELIREVEMGPFKHTVDDGLDIRKAAFECMYTLLDSCLDRLDIFEFLNHVEDGLKDHYDIKMLTFLMLVRLSTLCPSAVLQRLDRLVEPLRATCTTKVKANSVKQEFEKQDELKRSAMRAVAALLTIPEAEKSPLMSEFQSQISSNPELAAIFESIQKDSSSTNLESMDTS
notes: CAND1, human, ORF amplified from an EST IMAGE clone and subcloned into pGEX6P-2; source: E. coli BL21, purified (glutathione resin, eluted with glutathione, dialysed); not shown: GST, N-terminal, kept
As to B1, the binding result is listed as “binds”.
